Data as given in publication PMC8579703.

Molecular target: neonatal Fc Receptor, FcRn (UniProt P55899)
Assay: SPR

Substance	Kd [µM]
ACE2-IgG4-Fc fusion construct 1 (ACE2 Q18-G732 wildtype fused to IgG4-Fc S228P) (from UniProt Q9BYF1 18-732)	2.9
ACE2-IgG4-Fc fusion construct 3 (ACE2 Q18-G732 H374N/H378N fused to IgG4-Fc S228P) (from UniProt Q9BYF1 18-732)	3.9
